Molecular target: interleukin-6 (IL-6), human recombinant (Homo sapiens, UniProt P05231 30-212)
Assay: SWCNT near-infrared fluorescence quenching, (7,5) chirality; SWCNT complex, 5250 ng/mL IL-6, 1X PBS, 3 h; no response, p=0.65903; 0.5 mg/L SWCNT-ssDNA in 1X PBS (or 1X PBS + 10% FBS), 5250 ng/mL IL-6, 120 uL, triplicate, up to 180 min; pH and temperature not stated
Settings: protein: commercial; label: noncovalently adsorbed on SWCNT

interleukin-6 (IL-6), human recombinant, sequence (P05231 30-212): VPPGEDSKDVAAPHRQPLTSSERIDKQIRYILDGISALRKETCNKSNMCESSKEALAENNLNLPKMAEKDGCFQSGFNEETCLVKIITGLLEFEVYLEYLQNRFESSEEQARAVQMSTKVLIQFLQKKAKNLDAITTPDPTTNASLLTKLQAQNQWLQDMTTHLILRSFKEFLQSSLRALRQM

GTGTGTGTGTGTGTGTGTGTGTGTGTGTGT (ssDNA) [(GT)15]
binding result: no binding
